Here are results for three molecules from patent US7265263B1, “Potato transcription factors, methods of use thereof, and a method for enhancing tuber development” (Iowa State University Research Foundation, Inc., priority 2002, dated 2007).

In assay [1] the target is T1, POTH1 in pBridge (full-length POTH1 fused with the GAL4 DNA-binding domain) (Solanum tuberosum).
T1 construct: Bait of the yeast two-hybrid screen and partner of the StBEL-05 deletion constructs; also called pBHD; pBridge:POTH1
The experiment in a line: yeast two-hybrid deletion analysis. The text has this: The Matchmaker two-hybrid system (Clontech, Calif.) was used for the yeast two-hybrid screen. Yeast transformation and plasmid rescue into DH5-α *E. coli* cells were according to the manufacturer's instructions. Full-length POTH1 was cloned into the pBridge (Clontech, Calif.) vector and used as bait to screen the potato (*S. tuberosum* 'Desireé') stolon cDNA library in pAD-GAL4-2.1 (Stratagene, Calif.). Positive interactions were confirmed by cotransforming yeast strain AH109 with each purified pAD plasmid and pBridge: POTH1 and plating on -leucine/-tryptophan (transformation control) and -leucine/-tryptophan/-histidine/-adenine (selection) nutrient medium. Induction of the AH109 reporter gene, lacZ, was measured with a yeast β-galactosidase assay kit (Pierce Chemicals). β-galactosidase activity (FIG. 9B) was determined from a known density of yeast cells and calculated as 1000 ×OD420/time of color reaction (minutes)×volume of yeast culture (ml)×$OD600$.
The StBEL-05 deletion constructs were amplified by PCR, then cloned into the vector, pGAD, in-frame with the GAL4 activation domain. POTH1 deletion constructs were amplified by PCR, and cloned into pBridge (Clontech) in-frame with the GAL4 binding domain. Sequencing of selected cDNAs and constructs was performed at the Iowa State University DNA Facility. […]

Assay [2] addresses T2, StBEL-05 in pBridge (fusion with the GAL4 DNA-binding domain) (Solanum tuberosum).
T2 construct: Swapped two-hybrid orientation; also called prey cDNA cloned into pBridge
The experiment in a line: yeast two-hybrid, swapped vectors.

For assay [3], the system named is StBEL-05. The assay is described as follows: Yeast two-hybrid interaction of POTH1 deletion constructs with StBEL-05. The settings on record: yeast AH109. In kind it is binding, Solanum tuberosum. The method, then: The StBEL-05 deletion constructs were amplified by PCR, then cloned into the vector, pGAD, in-frame with the GAL4 activation domain. POTH1 deletion constructs were amplified by PCR, and cloned into pBridge (Clontech) in-frame with the GAL4 binding domain. Sequencing of selected cDNAs and constructs was performed at the Iowa State University DNA Facility. For deletion analysis, modified constructs of POTH1 were cloned into the pBridge vector for fusion with the DNA-binding domain of GAL4 (FIG. 10A). For StBEL-05, constructs were cloned into the pGAD vector for fusion with the activating domain of GAL4 (FIG. 10B). Deletion constructs were made from both the amino and carboxy termini. These mutants were then tested for interaction in the yeast two-hybrid system by cotransforming into yeast strain AH109 with the corresponding full-length partner (StBEL-05 in pGAL4 or POTH1 in pBridge). All constructs were sequenced to verify that they were in-frame. Positive interactions were verified for lacZ induction by using a β-galactosidase assay (Pierce Chemical Company). For POTH1, seven deletion constructs were tested (FIG. 10A). For the BEL TFs, a fusion construct of StBEL-05 (653 aa of StBEL-05 sequence) and nine deletion constructs were tested (FIG. 10B).

In assay [4] the test system is StBEL-05. The assay is described as follows: In vitro binding assay of POTH1 deletion constructs with StBEL-05. Also on record: species or system Solanum tuberosum. Conditions: in vitro binding protocol. The method, then: In vitro binding experiments were performed as described by Ni et al., “PIF3, a Phytochrome-Interacting Factor Necessary for Normal Photoinduced Signal Transduction, is a Novel Basic Helix-Loop-Helix Protein,” Cell 95:657-667 (1998), which is hereby incorporated by reference in its entirety. The full-length sequence for POTH1 was cloned into a pET17b/GAD fusion cassette and transcribed under the control of the T7 promoter. […] Each 50 μl TnT reaction contained 2.0 μg of template plasmid DNA and 20 μmol (20 μCi) of labeled ^35S-methionine. The POTH1:GAD/BEL complex was immunoprecipitated with anti-GAD antibodies (Santa Cruz Biotechnology, Calif.). The proteins from the pellet (one-half the fraction) and for the prey (one-fourth of the reaction volume) were resolved on a 10% SDS-PAGE gel and visualized by autoradiography. […] Control experiments identified the first 114 aa of the N-terminus (pBHD9) as a transcriptional activator. […] Co-transformation of pBHD9 with an empty pGAD cassette produced transformants capable of growth on -histidine, -tryptophan, -adenine, and -leucine medium and induction of lacZ. None of the other constructs containing this domain were capable of growing on selection media without StBEL-05.

B1: pAD5-2 (StBEL-05 deletion construct in pGAD) (other, not shown: small tags and cut ends)
chain: EEVEQRYRQYHHQMQIIVLSFEQVAGIGSAKSYTQLALHAISKQFRCLKDAIAEQVKATSKSLGEEEGLGGKIEGSRLKFVDHHLRQQRALQQIGMMQPNAWRPQRGLPERAVSVLRAWLFEHFLHPYPKDSDKIMLAKQTGLTRSQVSNWFINARVRLWKPMVEEMYLEEVKNQEQNSTNTSGDNKNKETNISAPNEEKHPIITSSLLQDGITTTQAEISTSTISTSPTAGASLHHAHNFSFLGSFNMDNTTTTVDHIENNAKKQRNDMHKFSPSSILSSVDMEAKARESSNKGFTNPLMAAYAMGDFGRFDPHDQQMTANFHGNNGVSLTLGLPPSENLAMPVSQQNYLSNDLGSRSEMGSHYNRMGYENIDFQSGNKRFPTQLLPDFVTGNLGT
notes: Residues converted from pAD-05 numbering
For B1, the binding result in assay [1] is “no binding”.

B2: pBHD9 construct cloned into the pGAD vector (other, not shown: large carriers)
chain: MDDEMYGFHSTRDDYADKALMSPENLMMQTEYNNFHNYTNSSILTSNPMMFGSDDIQLSSEQTNSFSTMTLQNNDNIYQIRSGNCGGGSGSGGSSKDHNDNNNNNEDYDEDGSN
notes: also called pBDH9 construct in pGAD
Regarding B2, in assay [2], the binding result was “no binding”.

B3: pBHD-9: POTH1 deletion construct, first amino-terminal 114 aa, no KNOX domain sequence (protein)
chain: B2 chain
Turning to B3, the “interaction with StBEL-05” value with StBEL-05 [3] was “Interaction with StBEL-05 was observed”. In addition, the “pull-down of StBEL-05” value with StBEL-05 [4] was “unable to pull-down StBEL-05”.
